Assay [1] addresses cynomolgus PD-L1, his tagged (cPD-L1-his) (cynomolgus (Macaca fascicularis)) (UniProt G7PSE7). Briefly: ELISA on coated cPD-L1-his, negative control. Background: ELISA stands for enzyme-linked immunosorbent assay.
The target of assay [2] is human PD-L1 Fc fusion (hPD-L1-Fc) (human) (UniProt Q9NZQ7). Briefly: blocking ELISA: residual biotin-hPD-1-Fc signal on coated hPD-L1-Fc, negative control.
Assay [3] has as its target human PD-L1, his tagged (hPD-L1-his) (human) (UniProt Q9NZQ7). Briefly: ELISA on coated hPD-L1-his, negative control.

Chain of human PD-L1, his tagged (hPD-L1-his) (human) (Q9NZQ7 19-238 limits assumed): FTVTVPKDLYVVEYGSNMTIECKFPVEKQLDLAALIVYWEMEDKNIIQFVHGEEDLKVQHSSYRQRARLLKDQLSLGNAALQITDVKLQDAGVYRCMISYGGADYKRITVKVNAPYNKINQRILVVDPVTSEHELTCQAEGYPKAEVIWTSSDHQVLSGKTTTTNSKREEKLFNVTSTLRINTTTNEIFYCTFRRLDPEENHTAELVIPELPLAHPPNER
Chain of human PD-L1 Fc fusion (hPD-L1-Fc) (human) (Q9NZQ7 19-238 limits assumed): as above
Chain of cynomolgus PD-L1, his tagged (cPD-L1-his) (cynomolgus (Macaca fascicularis)) (G7PSE7 entry or part of it limits assumed, form in doubt): as the sequence (Q9NZQ7 19-238 limits assumed) above, with A33T, A34S, S62N, R68Q, Q82R, F173L, T185A, T192I, H215L counted along it

On to “NEG (negative control of the hybridoma supernatant screen)”, for which the A450 in assay [1] came to 0.0348 A450; in assay [3] it was 0.034 A450. In assay [2], this substance gave a Block Residual % of 60%.

Values taken from patent US20240067729A1.
